Values quoted from earlier work as cited in PMC8896763.
pKd: −log10 of the molar value.

Columns and labels:
CD58 (Homo sapiens) = CD58 (Homo sapiens) (UniProt P19256)
CD48 (Rattus norvegicus) = CD48 (Rattus norvegicus) (UniProt P10252)
CD80 = CD80 (UniProt P33681)
PSGL-1 (Homo sapiens) = PSGL-1 (Homo sapiens) (UniProt Q14242)
UniProt Q14242, sequence (Q14242 42-320): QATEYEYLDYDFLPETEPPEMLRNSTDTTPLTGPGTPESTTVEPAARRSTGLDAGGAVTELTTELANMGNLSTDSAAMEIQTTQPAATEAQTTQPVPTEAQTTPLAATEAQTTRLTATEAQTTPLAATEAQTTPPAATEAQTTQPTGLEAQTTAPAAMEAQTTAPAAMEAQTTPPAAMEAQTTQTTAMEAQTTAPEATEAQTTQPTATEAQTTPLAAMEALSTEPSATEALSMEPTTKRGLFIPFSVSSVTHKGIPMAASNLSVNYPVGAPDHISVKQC

UniProt P33681, sequence (P33681 35-242): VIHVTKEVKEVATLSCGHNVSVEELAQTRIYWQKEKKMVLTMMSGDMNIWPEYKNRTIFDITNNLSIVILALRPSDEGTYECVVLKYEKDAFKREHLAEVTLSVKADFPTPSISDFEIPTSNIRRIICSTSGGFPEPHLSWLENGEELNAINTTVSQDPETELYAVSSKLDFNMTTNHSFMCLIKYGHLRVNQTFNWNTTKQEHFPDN
UniProt P10252, sequence (P10252 23-217): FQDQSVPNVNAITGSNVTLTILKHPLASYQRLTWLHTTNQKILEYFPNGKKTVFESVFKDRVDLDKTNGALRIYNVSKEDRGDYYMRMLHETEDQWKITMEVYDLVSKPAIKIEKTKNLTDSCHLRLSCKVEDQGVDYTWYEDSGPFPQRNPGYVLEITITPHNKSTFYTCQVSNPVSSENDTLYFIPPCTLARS
UniProt P19256, sequence (P19256 29-215): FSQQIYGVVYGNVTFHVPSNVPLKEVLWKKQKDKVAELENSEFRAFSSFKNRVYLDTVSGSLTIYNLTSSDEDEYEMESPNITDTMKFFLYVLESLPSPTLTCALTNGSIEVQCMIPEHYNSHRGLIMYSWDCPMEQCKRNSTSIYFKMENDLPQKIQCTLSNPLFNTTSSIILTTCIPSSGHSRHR

For CD2 (from UniProt P06729), the pKd (CD58 (Homo sapiens)) is listed as 5.00.
For CD2 (from UniProt P08921), the pKd (CD48 (Rattus norvegicus)) is given as 4.22.
In the case of CD28 (from UniProt P10747), the pKd (CD80) is listed as 5.70.
In the case of P-selectin (from UniProt P16109), the pKd (PSGL-1 (Homo sapiens)) is given as 6.52.
